Laboratory results reported in article PMC12319226 (Frontiers in Bioinformatics, 2025).
Substitutions are numbered along the chain they refer to.

Assays:
Assay in all cases: BLI
Conditions in all cases: both partners purified
[1] = molecular target: T1, factor H binding protein variant 3.28 (Neisseria meningitidis, fHbp variant …)
T1 construct: also called fHbp v3.28; v3.28 Control (0002)
T1 chain: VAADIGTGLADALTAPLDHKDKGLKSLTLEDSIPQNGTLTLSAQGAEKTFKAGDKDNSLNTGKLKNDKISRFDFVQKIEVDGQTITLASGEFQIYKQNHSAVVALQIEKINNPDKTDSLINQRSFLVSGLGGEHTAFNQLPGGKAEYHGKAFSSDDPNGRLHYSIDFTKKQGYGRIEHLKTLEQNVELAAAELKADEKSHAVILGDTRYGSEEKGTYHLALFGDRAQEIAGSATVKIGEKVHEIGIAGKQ

fHbp m001529 = molecular target: T2, fHbp m001529 (Neisseria meningitidis, fHbp …, point mutant)
T2 chain: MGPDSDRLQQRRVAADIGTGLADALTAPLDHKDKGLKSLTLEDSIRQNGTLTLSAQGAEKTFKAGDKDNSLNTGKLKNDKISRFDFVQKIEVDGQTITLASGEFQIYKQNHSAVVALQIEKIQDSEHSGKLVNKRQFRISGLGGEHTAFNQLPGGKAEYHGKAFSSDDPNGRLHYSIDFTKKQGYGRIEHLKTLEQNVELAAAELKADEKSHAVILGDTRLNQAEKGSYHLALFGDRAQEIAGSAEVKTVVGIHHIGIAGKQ

fHbp m001604 = molecular target: T3, fHbp m001604 (Neisseria meningitidis, fHbp …, point mutant)
T3 chain: T2 chain with Q223S, V251E

fHbp m001848 = molecular target: T4, fHbp m001848 (Neisseria meningitidis, engineered fHbp …, chimera)
T4 chain: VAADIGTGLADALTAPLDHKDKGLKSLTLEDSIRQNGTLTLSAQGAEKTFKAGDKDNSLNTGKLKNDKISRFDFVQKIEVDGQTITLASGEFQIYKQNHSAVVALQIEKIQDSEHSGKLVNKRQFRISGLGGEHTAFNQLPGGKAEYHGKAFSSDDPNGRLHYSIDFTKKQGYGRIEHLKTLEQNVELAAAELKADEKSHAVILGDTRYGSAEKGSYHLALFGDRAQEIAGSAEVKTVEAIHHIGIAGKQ

fHbp m001213 = molecular target: T5, fHbp m001213 (Neisseria meningitidis fHbp v3.28-based …, point mutant)
T5 chain: T2 chain with N222G, Q223G, V250D, V251N, G252A

fHbp m001767 = molecular target: T6, fHbp m001767 (Neisseria meningitidis fHbp v3.28, …, point mutant)
T6 chain: T2 chain with L221Y, N222G, V251E, G252S

fHbp m001832 = molecular target: T7, fHbp m001832 (Neisseria meningitidis fHbp v3.28, …, chimera)
T7 chain: T2 chain with L221Y, N222G, Q223S, T249S, V250D, V251N

fHbp m001039 = molecular target: T8, fHbp m001039 (Neisseria meningitidis fHbp v3.28, …, point mutant)
T8 chain: T2 chain with N222G, V251E, G252A

fHbp m001822 = molecular target: T9, fHbp m001822 (Neisseria meningitidis, engineered fHbp …, point mutant)
T9 chain: T4 chain with T237S

B1: mAb 1E6 (human) (antibody, V domains shown)
VH: EVQLVQSGAEVKKPGSSVKVSCKASGGTVIDYPITWVRQAPGQGLEWVGGFVPLFRTSNYGQKFQGRVTITADKSTSTASMELNSLTSEDTAIYYCARGDTAMGPFDYWGQGTLVTVSS
VL: SYVLTQPPSLSVAPGKTATLTCGGNNIAGKTVHWYQQRPGQAPVLVISYDSDRPSGIPERFSGSNSANTATLTISRVEAGDEADYYCQVWDRNSDHWVFGGGTKLTVL
notes: source: Expi293, purified (MabSelect SuRe, SEC); copies: 2 + 2
Q: What does the source list for B1?
A: Kd [1]: 0.77 nM; koff [1]: 0.000387 s⁻¹; kon [1]: 501900 ± 2080 M⁻¹ s⁻¹; Kd (fHbp m001529): 0.338 nM; koff (fHbp m001529): 0.000156 s⁻¹; kon (fHbp m001529): 460900 ± 3880 M⁻¹ s⁻¹; Kd (fHbp m001604): 0.493 nM; koff (fHbp m001604): 0.000104 s⁻¹; kon (fHbp m001604): 210000 ± 2260 M⁻¹ s⁻¹; Kd (fHbp m001848): 0.344 nM; koff (fHbp m001848): 0.000155 s⁻¹; kon (fHbp m001848): 451100 ± 2150 M⁻¹ s⁻¹; Kd (fHbp m001213): 0.594 nM; koff (fHbp m001213): 0.000262 s⁻¹; kon (fHbp m001213): 440700 ± 1810 M⁻¹ s⁻¹; Kd (fHbp m001767): 0.131 nM; koff (fHbp m001767): 4.68e-05 s⁻¹; kon (fHbp m001767): 358200 ± 2140 M⁻¹ s⁻¹; Kd (fHbp m001832): 0.435 nM; koff (fHbp m001832): 0.00016 s⁻¹; kon (fHbp m001832): 367800 ± 1240 M⁻¹ s⁻¹; Kd (fHbp m001039): 0.655 nM; koff (fHbp m001039): 0.00031 s⁻¹; kon (fHbp m001039): 473100 ± 1890 M⁻¹ s⁻¹; Kd (fHbp m001822): 0.455 nM; koff (fHbp m001822): 0.00017 s⁻¹; kon (fHbp m001822): 372900 ± 2610 M⁻¹ s⁻¹

B2: chimeric antibody h12C1 (antibody, V domains shown)
VH: QVQLQESGPELVKPGASVKISCKASGYSFSDYNMSWVKQSNGKSLEWIGIIDPKYGTINYNQKFKGKATLTVDQASSTAYMQLNSLTSEDSAVYYCVRDYYGSSYFDYWGQGTTLTVSS
VL: DIVLTQSPSSIYASLGERVTLTCKASQDIHNYLNWFQQKPGKSPKTLIYRANRLVDGVPSRFSGGGSGQDYSLTISSLEFEDIGIYYCLQYDEFPPTFGGGTRLEIK
notes: also called humanized 12C1; source: Expi293, purified (MabSelect SuRe, SEC); copies: 2 + 2
Q: How did the Kd (fHbp m001039) turn out when B2 was run?
A: 65.7 nM

Q: And the koff (fHbp m001039)?
A: 0.0146 s⁻¹

Q: And the kon (fHbp m001039)?
A: 223000 ± 3080 M⁻¹ s⁻¹
